Results taken from patent publication US20260258084A1, “New Peptides as Selective IL-23 Receptor Antagonists” (Sanofi, priority 2022, published 2026).
Starred links: 1 amine or outer side, 2 acyl side, 3 side chain; linkers in the order of their positions; H or OH if unused. Positions of bridges follow the written chain, without caps; N, C: chain ends. Non-standard residues stand in square brackets, D forms with d. Residues, ends and D or L forms follow the SMILES beside them. No end group written: not given here. *: point of attachment. Yde = (2S)-2-amino-3-[4-[2-(dimethylamino)ethoxy]phenyl]propanoic acid, CN(C)CCOc1ccc(C[C@H](N[*:1])C(=O)[*:2])cc1; Phe(4-OMe) = COc1ccc(C[C@H](N[*:1])C(=O)[*:2])cc1; Trp(7-Me) = Cc1cccc2c(C[C@H](N)C(=O)O)c[nH]c12; αMeLys(Me2) = CN(C)CCCC[C@](C)(N)C(=O)O; 2Nal = N[C@@H](Cc1ccc2ccccc2c1)C(=O)O; AEF = NCCOc1ccc(C[C@H](N)C(=O)O)cc1; NMe5Ava = CN(CCCCC(=O)[*:2])[*:1]; 3Pal = N[C@@H](Cc1cccnc1)C(=O)O; Dad = desamino-aspartamic acid; αMeL = CC(C)C[C@](C)(N)C(=O)O; Suc = O=C(CCC(=O)[*:2])[*:1]; Nmapt = not defined here; Thp = NC1(C(=O)O)CCOCC1; Me2NCH2CH2 = CN(C)CC*; Aib = CC(C)(N)C(=O)O; Ava = NCCCCC(=O)O

B1: Compound of SEQ ID NO: 10 (peptide)
peptide: [Ava]CNTWQC[Yde][2Nal][αMeL]EN[dL]-NH2
modifications: lactam N-11; disulfide 2-7
SMILES: CC(C)C[C@@H](NC(=O)[C@H](CC(N)=O)NC(=O)[C@@H]1CCC(=O)NCCCCC(=O)N[C@H]2CSSC[C@H](NC(=O)[C@H](CCC(N)=O)NC(=O)[C@H](Cc3c[nH]c4ccccc34)NC(=O)[C@H]([C@@H](C)O)NC(=O)[C@H](CC(N)=O)NC2=O)C(=O)N[C@@H](Cc2ccc(OCCN(C)C)cc2)C(=O)N[C@@H](Cc2ccc3ccccc3c2)C(=O)N[C@@](C)(CC(C)C)C(=O)N1)C(N)=O
B2: Compound of SEQ ID NO: 11 (peptide)
peptide: [Dad]CNTWQC[Phe(4-OMe)][2Nal][Aib]KNN-NH2
modifications: lactam (positions not given here); disulfide 2-7; not fully specified (bridges); printed as Dad(§1)-C(@2)-N-T-W-Q-C(@2)-Yme-Nal-Aib-K(§1)-N—N—NH2
B3: Compound of SEQ ID NO: 1 (peptide)
peptide: [Ava]CNTWQC[Phe(4-OMe)][2Nal][Aib]ENN-NH2
modifications: lactam N-11; disulfide 2-7
SMILES: COc1ccc(C[C@@H]2NC(=O)[C@@H]3CSSC[C@H](NC(=O)CCCCNC(=O)CC[C@@H](C(=O)N[C@@H](CC(N)=O)C(=O)N[C@@H](CC(N)=O)C(N)=O)NC(=O)C(C)(C)NC(=O)[C@H](Cc4ccc5ccccc5c4)NC2=O)C(=O)N[C@@H](CC(N)=O)C(=O)N[C@@H]([C@@H](C)O)C(=O)N[C@@H](Cc2c[nH]c4ccccc24)C(=O)N[C@@H](CCC(N)=O)C(=O)N3)cc1
B4: Compound of SEQ ID NO: 13 (peptide)
peptide: [Nmapt]CKWQC[AEF][2Nal][Thp]ENN-NH2
modifications: lactam N-10; disulfide 2-6; not fully specified (residue 3); printed as Nmapt(§1)-C(§3)(@2)-K[aAc](@3)-W-Q-C(@2)-Yae-Nal-Thp-E(§1)-N—N—NH2; reading uncertain; also: K[aAc]: Cys2 bonded to epsilon-NH2 of acetylated Lys3, acetyl presumably on alpha-amine
B5: Compound of SEQ ID NO: 17 (peptide)
peptide: [Nmapt]CKWQC[AEF][2Nal][Thp]EAG-NH2
modifications: lactam N-10; disulfide 2-6; not fully specified (residue 3); printed as Nmapt(§1)-C(§3)(@2)-K[aAc](@3)-W-Q-C(@2)-Yae-Nal-Thp-E(§1)-A-G-NH2; reading uncertain; also: K3 acetylated (K[aAc]), acetyl site not given here, ε-NH2 takes the Cys2 bond
B6: Compound of SEQ ID NO: 15 (peptide)
peptide: [Nmapt]CKWQC[AEF][2Nal][Aib]ENG-NH2
modifications: lactam N-10; disulfide 2-6; not fully specified (residue 3); printed as Nmapt(§1)-C(§3)(@2)-K[aAc](@3)-W-Q-C(@2)-Yae-Nal-Aib-E(§1)-N-G-NH2; reading uncertain; also: K3 acetylated (K[aAc]), acetyl site not given here, ε-NH2 takes the Cys2 bond
B7: Compound of SEQ ID NO: 14 (peptide)
peptide: [Nmapt]CKWQC[AEF][2Nal][αMeL]ENN-NH2
modifications: lactam N-10; disulfide 2-6; not fully specified (residue 3); printed as Nmapt(§1)-C(§3)(@2)-K[aAc](@3)-W-Q-C(@2)-Yae-Nal-Mle-E(§1)-N—N—NH2; reading uncertain; also: K[aAc]: Cys2 bonded to epsilon-NH2 of acetylated Lys3, acetyl presumably on alpha-amine
B8: Compound of SEQ ID NO: 18 (peptide)
peptide: [Nmapt]CKWQC[AEF][2Nal][αMeL]EAG-NH2
modifications: lactam N-10; disulfide 2-6; not fully specified (residue 3); printed as Nmapt(§1)-C(§3)(@2)-K[aAc](@3)-W-Q-C(@2)-Yae-Nal-Mle-E(§1)-A-G-NH2; reading uncertain; also: K3 acetylated (K[aAc]), acetyl site not given here, ε-NH2 takes the Cys2 bond
B9: Compound of SEQ ID NO: 12 (peptide)
peptide: [Nmapt]CKWQC[AEF][2Nal][Aib]ENN-NH2
modifications: lactam N-10; disulfide 2-6; not fully specified (residue 3); printed as Nmapt(§1)-C(§3)(@2)-K[aAc](@3)-W-Q-C(@2)-Yae-Nal-Aib-E(§1)-N—N—NH2; reading uncertain; also: K[aAc]: Cys2 bonded to epsilon-NH2 of acetylated Lys3, acetyl presumably on alpha-amine
B10: Compound of SEQ ID NO: 16 (peptide)
peptide: [Nmapt]CKWQC[AEF][2Nal][Thp]ENG-NH2
modifications: lactam N-10; disulfide 2-6; not fully specified (residue 3); printed as Nmapt(§1)-C(§3)(@2)-K[aAc](@3)-W-Q-C(@2)-Yae-Nal-Thp-E(§1)-N-G-NH2; reading uncertain; also: K3 acetylated (K[aAc]), acetyl site not given here, ε-NH2 takes the Cys2 bond
B11: Compound of SEQ ID NO: 19 (peptide)
peptide: [Nmapt]CKWQC[AEF][2Nal][Aib]EA[dL]-NH2
modifications: lactam N-10; disulfide 2-6; not fully specified (residue 3); printed as Nmapt(§1)-C(§3)(@2)-K[aAc](@3)-W-Q-C(@2)-Yae-Nal-Aib-E(§1)-A-(D-Leu)-NH2; reading uncertain; also: K3 acetylated (K[aAc]), acetyl site not given here, ε-NH2 takes the Cys2 bond

Legend:
[1] = target: T1, human interleukin-23 receptor (recombinant human IL-23R-Fc chimera) (Homo sapiens, UniProt Q5VWK5); assay: Human ELISA IL23/IL23R (assay for specific human IL23R antagonists); format: binding; conditions: Table 10; read-out: Human ELISA IL23/IL23R IC50
T1 construct: Fc (IgG Fc fusion)
Method: Antagonism of compounds for human interleukin-23 receptor antagonists, was determined by an ELISA assay.
A 384-well plate was coated with 50 μl/well of human IL23 at a final concentration of […] and incubated overnight at 4° C. The wells were washed 3 times with 80 μl wash buffer and blocked with 80 μl blocking buffer for 60 minutes at room temperature and washed again. 20 μl of serially diluted test peptides was added to each well and subsequently 20 μl of recombinant human IL-23R-Fc chimera at final concentration of 0.1 μg/ml. The plate was incubated for 60 minutes at room temperature. After the wells were washed, bound IL23R-Fc was detected with goat anti-hu-IgG1-HRP antibody. Signals were visualized with QuantaBlu Fluorogenic Peroxidase Substrate.

[2] = tested on: IL-23 induced STAT3 signaling in HEK-Blue™ IL-23 cells; assay: IL-23 induced STAT3 signaling in HEK-Blue IL-23 cells (SEAP reporter); format: cell-based; conditions: human IL23 0.25 ng/ml, read-out: pSTAT3
Excerpt: HEK-Blue™ IL-23 cells (Invivogen) are designed for the detection of bioactive human (hIL-23) and murine IL-23 (mIL-23) by monitoring the activation of the STAT3 pathway. Binding of IL-23 to its receptor on the surface of HEK-Blue™ IL-23 cells triggers a signalling cascade leading to the activation of STAT3 and the subsequent production of secreted embryonic alkaline phosphatase (SEAP). This can be readily assessed using QUANTI-Blue™ Solution, a SEAP detection reagent.
HEK-Blue™ IL-23 cells were cultured as described by Invivogen.
On the first day of assay 10 μL of the HEK-Blue IL23 cell suspension (final concentration: 10,000 cells/well) and 10 μl of serially diluted peptides solutions were dispensed into a 384-well assay plate. After pre-incubation of the reaction mixtures at 37° C./5% CO2/95% humidity for 60 minutes, 10 μl of the human IL23 cytokine (final concentration: 0.25 ng/ml) was added to each well for the STAT3 signalling activation. The plate was incubated overnight at 37° C./5% CO2/95% humidity.
On the second day 20 μl per well of Quanti-Blue detection solution (prepared according to the manufacture instruction) was dispensed into a new 384-well plate and followed by the transfer of 5 μl supernatant of the overnight incubated cell/sample mixtures. After incubation of 45 min at room temperature signals were measured with PHERAstar (BMG) at OD 620-655 nm. Dose response data were fitted with XLfit.

[3] = target: T2, IL-23 receptor on the surface of HEK-Blue IL-23 cells (UniProt Q5VWK5 24-629, limits assumed); assay: cell-based or functional assay
T2 sequence (looked up): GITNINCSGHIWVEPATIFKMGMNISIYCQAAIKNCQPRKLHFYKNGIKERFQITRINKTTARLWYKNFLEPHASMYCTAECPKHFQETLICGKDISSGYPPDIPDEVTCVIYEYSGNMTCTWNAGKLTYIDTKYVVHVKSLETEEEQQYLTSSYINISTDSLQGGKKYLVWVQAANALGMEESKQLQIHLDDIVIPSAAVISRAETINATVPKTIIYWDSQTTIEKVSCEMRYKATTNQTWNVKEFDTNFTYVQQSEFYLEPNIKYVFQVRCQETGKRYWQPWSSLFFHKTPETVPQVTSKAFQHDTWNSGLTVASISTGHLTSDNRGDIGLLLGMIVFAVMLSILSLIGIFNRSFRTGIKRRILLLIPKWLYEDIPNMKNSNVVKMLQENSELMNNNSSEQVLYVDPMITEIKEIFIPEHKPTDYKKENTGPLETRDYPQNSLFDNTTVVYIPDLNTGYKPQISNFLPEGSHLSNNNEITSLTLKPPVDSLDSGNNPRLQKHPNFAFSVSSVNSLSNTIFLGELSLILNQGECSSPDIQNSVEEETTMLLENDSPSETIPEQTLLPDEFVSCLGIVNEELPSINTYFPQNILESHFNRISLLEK

Molecule | IC50 [1] | IC50 [2] | pSTAT3 (nM) [3]
CC(C)C[C@]1(C)NC(=O)[C@H](Cc2ccc3ccccc3c2)NC(=O)[C@H](Cc2ccc(OCCN(C)C)cc2)NC(=O)[C@@H]2CSSC[C@H](NC(=O)CCCCN(C)C(=O)CC[C@@H](C(=O)N[C@@H](CC(N)=O)C(=O)N[C@@H](CC(N)=O)C(N)=O)NC1=O)C(=O)N[C@@H](CC(N)=O)C(=O)N[C@@H]([C@@H](C)O)C(=O)N[C@@H](Cc1c[nH]c3ccccc13)C(=O)N[C@@H](CCC(N)=O)C(=O)N2 [compound 42] ([NMe5Ava]CNTWQCY(Me2NCH2CH2)[2Nal][αMeL]ENN-NH2; disulfide 2-7; lactam N-11) | 320 pM | 1420 pM | –
Cc1cccc2c(C[C@@H]3NC(=O)[C@H]([C@@H](C)O)NC(=O)[C@H](CC(N)=O)NC(=O)[C@@H]4CSSC[C@H](NC(=O)[C@H](CC(C)C)NC3=O)C(=O)N[C@@H](Cc3ccc(OCCN(C)C)cc3)C(=O)N[C@@H](Cc3ccc5ccccc5c3)C(=O)N[C@@](C)(CCCCN(C)C)C(=O)N[C@H](C(=O)N[C@@H](CC(N)=O)C(=O)N[C@@H](Cc3cccnc3)C(N)=O)CCCCNC(=O)CCC(=O)N4)c[nH]c12 [compound 150] (CNT[Trp(7-Me)]LCY(Me2NCH2CH2)[2Nal][αMeLys(Me2)]KN[3Pal]-NH2; disulfide 1-6; linker N-10 via Suc) | 910 pM | 130 pM | –
B1 | – | – | 25.8 nM
B2 | – | – | 53.5 nM
B3 | – | – | 18.5 nM
B4 | – | – | 32 nM
B5 | – | – | 62 nM
B6 | – | – | 29.2 nM
B7 | – | – | 18.7 nM
B8 | – | – | 69.5 nM
B9 | – | – | 27.9 nM
B10 | – | – | 32.1 nM
B11 | – | – | 88.3 nM
